Results reported in the Immune Epitope Database (IEDB).

How the values were obtained:
Test in all cases: IEDB peptide-MHC binding, cellular MHC/competitive/fluorescence; ≥ and ≤ were set here for values at or beyond the usual limits of such assays
HLA-A*02:02 = molecular target: HLA-A*02:02
HLA-A*02:06 = molecular target: HLA-A*02:06
HLA-A*02:03 = molecular target: HLA-A*02:03
HLA-A*68:02 = molecular target: HLA-A*68:02
HLA-A*02:01 = molecular target: HLA-A*02:01
[1] = source organism: Vaccinia virus WR
[2] = source organism: Influenza A virus
[3] = source organism: Mammarenavirus choriomeningitidis
[4] = source organism: Hepacivirus hominis

Sequence | IC50 (HLA-A*02:02; [1]) | IC50 (HLA-A*02:06; [1]) | IC50 (HLA-A*02:03; [1]) | IC50 (HLA-A*68:02; [1]) | IC50 (HLA-A*02:01; [1]) | other results
SITPNNLNKI | 14.9 µM | ≥ 70 µM | ≥ 70 µM | ≥ 70 µM | ≥ 70 µM | 
EAKTHFSTT | 36.6 µM | 55.2 µM | 25.1 µM | 13.2 µM | 27.7 µM | 
LTGNNTITT | 5.75 µM | 8.69 µM | 5.62 µM | 8.24 µM | 11.2 µM | 
DMICCDSRIV | 11.3 µM | 18.9 µM | 6.08 µM | 13.3 µM | 34.7 µM | 
NINFNNSSII | 6.64 µM | 30.1 µM | 13.3 µM | 6.97 µM | 32.7 µM | 
IIRVTTELNI | 9.96 µM | 13.7 µM | 8.76 µM | 16.4 µM | 7.07 µM | 
NMDKVSAQNI | 8.02 µM | ≥ 70 µM | 16.8 µM | 37.3 µM | 16 µM | 
PVDLVKSSFV | 6.61 µM | 26.6 µM | 9.64 µM | 10.8 µM | 39.3 µM | 
QARQMVQAMRA |  |  |  |  |  | IC50 (HLA-A*02:02; [2]): 24.9 µM; IC50 (HLA-A*02:06; [2]): 55.2 µM; IC50 (HLA-A*02:03; [2]): ≥ 70 µM; IC50 (HLA-A*68:02; [2]): 20 µM; IC50 (HLA-A*02:01; [2]): ≥ 70 µM
TVLGVSIL |  |  |  |  |  | IC50 (HLA-A*02:02; [2]): 23.9 µM; IC50 (HLA-A*02:06; [2]): 5.69 µM; IC50 (HLA-A*02:03; [2]): 14.2 µM; IC50 (HLA-A*68:02; [2]): 15.8 µM; IC50 (HLA-A*02:01; [2]): 6.79 µM
QTGINNVQSL | 20.2 µM | 53.6 µM | 24.4 µM | 11.6 µM | 48.1 µM | 
PVIVPDIKL | 41.2 µM | 51.4 µM | 32.7 µM | 29.9 µM | 52.8 µM | 
PLSPDTCLLA | 11.2 µM | 19.9 µM | 9.31 µM | 15.2 µM | 6.97 µM | 
RTWKVLSIMA | 24 µM | 5.75 µM | 6.05 µM | 8.2 µM | 8.48 µM | 
PTDMLKLFT | 29.1 µM | 69.8 µM | 47 µM | ≥ 70 µM | ≥ 70 µM | 
SNSEDLLKAV |  |  |  |  |  | IC50 (HLA-A*02:02; [3]): 17.8 µM; IC50 (HLA-A*02:06; [3]): 10 µM; IC50 (HLA-A*02:03; [3]): 15.2 µM; IC50 (HLA-A*68:02; [3]): 43 µM; IC50 (HLA-A*02:01; [3]): 7.84 µM
ATALANTI |  |  |  |  |  | IC50 (HLA-A*02:02; [2]): 42.9 µM; IC50 (HLA-A*02:06; [2]): ≥ 70 µM; IC50 (HLA-A*02:03; [2]): 22.4 µM; IC50 (HLA-A*68:02; [2]): 40.8 µM; IC50 (HLA-A*02:01; [2]): 21.9 µM
ATQFNFNGHT | 28.6 µM | 26.4 µM | 11.5 µM | 23.3 µM | 38.6 µM | 

Sequence | IC50 (HLA-A*02:02; [1]) | IC50 (HLA-A*02:06; [1]) | IC50 (HLA-A*02:03; [1]) | IC50 (HLA-A*68:02; [1]) | IC50 (HLA-A*02:01; [1]) | other results
EMQLKIDKLT | 9.66 µM | ≥ 70 µM | 6.82 µM | 43.1 µM | 55.9 µM | 
CTEETKRNIA | ≥ 70 µM | ≥ 70 µM | 50.1 µM | 15.2 µM | ≥ 70 µM | 
IILFQNNDI | 11.3 µM | 12.1 µM | 52.3 µM | 23.8 µM | 13.5 µM | 
YVEHDPRLVA | 18.6 µM | 11.9 µM | 16.2 µM | 31.1 µM | 57.5 µM | 
DISVNASKTI | 46.8 µM | ≥ 70 µM | 11.9 µM | 14.5 µM | 14.7 µM | 
RAEIIRMMEGA |  |  |  |  |  | IC50 (HLA-A*02:02; [2]): 11.8 µM; IC50 (HLA-A*02:06; [2]): ≥ 70 µM; IC50 (HLA-A*02:03; [2]): 10 µM; IC50 (HLA-A*68:02; [2]): 54.7 µM; IC50 (HLA-A*02:01; [2]): ≥ 70 µM
VLKAMHDKKI | 48.9 µM | ≥ 70 µM | 33.9 µM | ≥ 70 µM | ≥ 70 µM | 
VAKCCSKTNT | 14.7 µM | 40.7 µM | 21.7 µM | ≥ 70 µM | 20.9 µM | 
TQLFKYVPSA | ≥ 70 µM | ≥ 70 µM | ≥ 70 µM | ≥ 70 µM | ≥ 70 µM | 
LTPFEKEFT | 16.8 µM | ≥ 70 µM | 20.9 µM | ≥ 70 µM | 44.5 µM | 
LLTHGADPNA | 9.61 µM | 15.7 µM | 7.51 µM | ≥ 70 µM | 11.2 µM | 
LVSKHWELT | 12.2 µM | ≥ 70 µM | 14.9 µM | ≥ 70 µM | ≥ 70 µM | 
DVNEEYTEAA | 46.3 µM | 59.7 µM | 28.8 µM | 16 µM | 42.4 µM | 
KLTKDRKML | 24.5 µM | ≥ 70 µM | 36.4 µM | ≥ 70 µM | 56.6 µM | 
LLGLLLLCV |  |  |  |  |  | IC50 (HLA-A*02:02; [4]): 9.77 µM; IC50 (HLA-A*02:06; [4]): 19.1 µM; IC50 (HLA-A*02:03; [4]): 6.77 µM; IC50 (HLA-A*68:02; [4]): ≥ 70 µM; IC50 (HLA-A*02:01; [4]): 7.37 µM
MQLKIDKLT | 7.67 µM | 59.7 µM | 60.1 µM | ≥ 70 µM | 26.6 µM | 
ALEPRKEIDV | 8.37 µM | 63.8 µM | 11.2 µM | ≥ 70 µM | 27.2 µM | 
